Legend:
Assay in all cases: cell-based or functional assay
cathepsin L [1] = biological target: cathepsin L
papain [2] = biological target: T1, papain (UniProt P00784 134-345)
T1 sequence (looked up): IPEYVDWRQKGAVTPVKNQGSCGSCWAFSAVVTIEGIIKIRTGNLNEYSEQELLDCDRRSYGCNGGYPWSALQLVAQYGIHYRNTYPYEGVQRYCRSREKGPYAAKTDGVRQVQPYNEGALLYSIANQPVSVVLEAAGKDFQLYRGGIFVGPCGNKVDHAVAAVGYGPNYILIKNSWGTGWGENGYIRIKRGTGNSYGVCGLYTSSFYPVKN

cathepsin B [3] = biological target: cathepsin B
cathepsin L [4] = biological target: cathepsin L; remark: listed apart in the source
cathepsin B [5] = biological target: cathepsin B; remark: listed apart in the source
cathepsin S = biological target: cathepsin S
papain [6] = biological target: T1, papain; remark: listed apart in the source

Binder: YEKYLGPQYVAGITNLK [human lactoferrin peptide Y679-K695]
- inhibition of cysteine protease activity at 10^-4 M inhibitor (cathepsin L [1]): > 50%
- inhibition of cysteine protease activity at 10^-4 M inhibitor (papain [2]): > 50%

B1: bovine transferrin (manufactured by Nihon Pharmaceutical Co., Ltd.) (other)
chain: DPERTVRWCTISTHEANKCASFRENVLRILESGPFVSCVKKTSHMDCIKAISNNEADAVTLDGGLVYEAGLKPNNLKPVVAEFHGTKDNPQTHYYAVAVVKKDTDFKLNELRGKKSCHTGLGRSAGWNIPMAKLYKELPDPQESIQRAAANFFSASCVPCADQSSFPKLCQLCAGKGTDKCACSNHEPYFGYSGAFKCLMEGAGDVAFVKHSTVFDNLPNPEDRKNYELLCGDNTRKSVDDYQECYLAMVPSHAVVARTVGGKEDVIWELLNHAQEHFGKDKPDNFQLFQSPHGKDLLFKDSADGFLKIPSKMDFELYLGYEYVTALQNLRESKPPDSSKDECMVKWCAIGHQERTKCDRWSGFSGGAIECETAENTEECIAKIMKGEADAMSLDGGYLYIAGKCGLVPVLAENYKTEGESCKNTPEKGYLAVAVVKTSDANINWNNLKDKKSCHTAVDRTAGWNIPMGLLYSKINNCKFDEFFSAGCAPGSPRNSSLCALCIGSEKGTGKECVPNSNERYYGYTGAFRCLVEKGDVAFVKDQTVIQNTDGNNNEAWAKNLKKENFEVLCKDGTRKPVTDAENCHLARGPNHAVVSRKDKATCVEKILNKQQDDFGKSVTDCTSNFCLFQSNSKDLLFRDDTKCLASIAKKTYDSYLGDDYVRAMTNLRQCSTSKLLEACTFHKP
- inhibition of cysteine protease activity at 10^-4 M inhibitor (cathepsin L [1]): > 30%
- inhibition of cysteine protease activity at 10^-4 M inhibitor (cathepsin B [3]): > 30%
- inhibition of cysteine protease activity at 10^-4 M inhibitor (papain [2]): 40%

B2: bovine lactoferrin (manufactured by Morinaga Milk Industry Co., Ltd.) (other)
chain: APRKNVRWCTISQPEWFKCRRWQWRMKKLGAPSITCVRRAFALECIRAIAEKKADAVTLDGGMVFEAGRDPYKLRPVAAEIYGTKESPQTHYYAVAVVKKGSNFQLDQLQGRKSCHTGLGRSAGWIIPMGILRPYLSWTESLEPLQGAVAKFFSASCVPCIDRQAYPNLCQLCKGEGENQCACSSREPYFGYSGAFKCLQDGAGDVAFVKETTVFENLPEKADRDQYELLCLNNSRAPVDAFKECHLAQVPSHAVVARSVDGKEDLIWKLLSKAQEKFGKNKSRSFQLFGSPPGQRDLLFKDSALGFLRIPSKVDSALYLGSRYLTTLKNLRETAEEVKARYTRVVWCAVGPEEQKKCQQWSQQSGQNVTCATASTTDDCIVLVLKGEADALNLDGGYIYTAGKCGLVPVLAENRKSSKHSSLDCVLRPTEGYLAVAVVKKANEGLTWNSLKDKKSCHTAVDRTAGWNIPMGLIVNQTGSCAFDEFFSQSCAPGADPKSRLCALCAGDDQGLDKCVPNSKEKYYGYTGAFRCLAEDVGDVAFVKNDTVWENTNGESTADWAKNLNREDFRLLCLDGTRKPVTEAQSCHLAVAPNHAVVSRSDRAAHVKQVLLHQQALFGKNGKNCPDKFCLFKSETKNLLFNDNTECLAKLGGRPTYEEYLGTEYVTAIANLKKCSTSPLLEACAFLTR
- inhibition rate (%) at 10^-4M inhibitor (cathepsin L [4]): 100%
- inhibition rate (%) at 10^-5M inhibitor (cathepsin L [4]): 100%
- inhibition rate (%) at 10^-6M inhibitor (cathepsin L [4]): 100%
- inhibition rate (%) at 10^-7M inhibitor (cathepsin L [4]): 20%
- inhibition rate (%) at 10^-8M inhibitor (cathepsin L [4]): 0%
- inhibition rate (%) at 10^-4M inhibitor (cathepsin B [5]): 100%
- inhibition rate (%) at 10^-5M inhibitor (cathepsin B [5]): 70%
- inhibition rate (%) at 10^-6M inhibitor (cathepsin B [5]): 10%
- inhibition rate (%) at 10^-7M inhibitor (cathepsin B [5]): 0%
- inhibition rate (%) at 10^-8M inhibitor (cathepsin B [5]): 0%
- inhibition rate (%) at 10^-4M inhibitor (cathepsin S): 100%
- inhibition rate (%) at 10^-5M inhibitor (cathepsin S): 80%
- inhibition rate (%) at 10^-6M inhibitor (cathepsin S): 15%
- inhibition rate (%) at 10^-7M inhibitor (cathepsin S): 0%
- inhibition rate (%) at 10^-8M inhibitor (cathepsin S): 0%
- inhibition rate (%) at 10^-4M inhibitor (papain [6]): 100%
- inhibition rate (%) at 10^-5M inhibitor (papain [6]): 100%
- inhibition rate (%) at 10^-6M inhibitor (papain [6]): 100%
- inhibition rate (%) at 10^-7M inhibitor (papain [6]): 40%
- inhibition rate (%) at 10^-8M inhibitor (papain [6]): 0%
